This is an account of results in publication PMC4734682, “Evidence for the Nucleo-Apical Shuttling of a Beta-Catenin Like Plasmodium falciparum Armadillo Repeat Containing Protein” (PLoS ONE, 2016).

Data set [1] addresses T1, rPfARO (Plasmodium falciparum 3D7) (UniProt C0H4A5).
T1 sequence: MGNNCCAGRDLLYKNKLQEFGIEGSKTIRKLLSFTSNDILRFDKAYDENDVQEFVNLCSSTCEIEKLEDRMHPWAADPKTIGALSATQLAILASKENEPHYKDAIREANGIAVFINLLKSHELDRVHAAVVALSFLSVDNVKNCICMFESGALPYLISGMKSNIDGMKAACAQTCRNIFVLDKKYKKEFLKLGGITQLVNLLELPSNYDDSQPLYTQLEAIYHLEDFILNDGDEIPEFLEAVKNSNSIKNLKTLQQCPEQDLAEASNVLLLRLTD
As to the kind of experiment: EMSA. Particulars: EMSA: 10 mM Tris-Cl pH 7.5, 100 mM KCl, 5 mM MgCl2, 2 mM DTT, 6% glycerol, 50 ug/ml BSA, 25 ul; temperature not stated. For orientation: In EMSA bound probe runs differently from free probe, usually more slowly.

The target of data set [2] is T1, rPfARO (Plasmodium falciparum 3D7). As to the kind of experiment: competition. Particulars: EMSA: 10 mM Tris-Cl pH 7.5, 100 mM KCl, 5 mM MgCl2, 2 mM DTT, 6% glycerol, 50 ug/ml BSA, 25 ul; temperature not stated.
Data set [3] deals with the molecule itself. As to the kind of experiment: non-reducing SDS-PAGE; purified rPfARO run under non-reducing conditions, stained gel and anti-His immunoblot; ~60 kDa dimer band beside the ~32 kDa monomer; dimer band diminished progressively with increasing DTT; both bands confirmed as PfARO by LC-MS.
Data set [4] deals with the molecule itself. As to the kind of experiment: non-reducing SDS-PAGE; immunoblot of parasite lysate under non-reducing conditions with anti-PfARO antibodies; ~60 kDa dimer beside the ~32 kDa monomer. A general note: In western blotting, separated proteins are transferred to a membrane and probed.

For the molecule “TTTTATATCATTTAATTCATATGTCTTTTCTTTCTTCTTCGCCTTCAGATCATAAGGATCTTGGACCTTTTTTCTTTCCTTCTTTTCAGAACACAAAGATGTACAACTAAAAGCATTGTCTGTATATGTTGAACGATTACTCTTGAAGGATCCCG (double strand) [AT-rich PfgyrA DNA]”, the binding entry in data set [1] and in data set [2] was “binds” throughout.

B1: Recombinant PfARO (P. falciparum Armadillo Repeats Only protein), full length, C-terminal 6-His tag (natural protein, P. falciparum (strain 3D7), UniProt C0H4A5 1-275, looked up)
chain: MGNNCCAGRDLLYKNKLQEFGIEGSKTIRKLLSFTSNDILRFDKAYDENDVQEFVNLCSSTCEIEKLEDRMHPWAADPKTIGALSATQLAILASKENEPHYKDAIREANGIAVFINLLKSHELDRVHAAVVALSFLSVDNVKNCICMFESGALPYLISGMKSNIDGMKAACAQTCRNIFVLDKKYKKEFLKLGGITQLVNLLELPSNYDDSQPLYTQLEAIYHLEDFILNDGDEIPEFLEAVKNSNSIKNLKTLQQCPEQDLAEASNVLLLRLTD
notes: PfARO, Plasmodium falciparum strain 3D7, PlasmoDB PF3D7_0414900; full length open reading frame of 275 amino acids amplified from 3D7 cDNA; putative NES at residues 198-204 (LVNLLEL); nine cysteines; Cloned NdeI/XhoI into pET-24b; also called rPfARO; ARM Repeats Only; source: E. coli BL21 (DE3) Codon+, purified (Ni-NTA, size exclusion chromatography on Superdex-200); not shown: His6, C-terminal, …
Turning to B1, the “stoichiometry N” value in data set [3] turned out to be 2.

B2: Native PfARO parasite protein (natural protein, UniProt C0H4A5 1-275, looked up)
chain: MGNNCCAGRDLLYKNKLQEFGIEGSKTIRKLLSFTSNDILRFDKAYDENDVQEFVNLCSSTCEIEKLEDRMHPWAADPKTIGALSATQLAILASKENEPHYKDAIREANGIAVFINLLKSHELDRVHAAVVALSFLSVDNVKNCICMFESGALPYLISGMKSNIDGMKAACAQTCRNIFVLDKKYKKEFLKLGGITQLVNLLELPSNYDDSQPLYTQLEAIYHLEDFILNDGDEIPEFLEAVKNSNSIKNLKTLQQCPEQDLAEASNVLLLRLTD
notes: PfARO, Plasmodium falciparum strain 3D7, PlasmoDB PF3D7_0414900; native protein detected at ~32 kDa; source: endogenous, P. falciparum 3D7 schizont-stage parasite lysate (detergent based)
For the molecule B2, in data set [4], the “stoichiometry N” value was found to be 2.

Broadly, the stoichiometry N is a count of units in the complex or per binding partner.
